In experiment [1] the target is T1, wild-type KaiC with an N-terminal FLAG epitope (cyanobacteria, UniProt Q79PF4 1-519).
T1 sequence: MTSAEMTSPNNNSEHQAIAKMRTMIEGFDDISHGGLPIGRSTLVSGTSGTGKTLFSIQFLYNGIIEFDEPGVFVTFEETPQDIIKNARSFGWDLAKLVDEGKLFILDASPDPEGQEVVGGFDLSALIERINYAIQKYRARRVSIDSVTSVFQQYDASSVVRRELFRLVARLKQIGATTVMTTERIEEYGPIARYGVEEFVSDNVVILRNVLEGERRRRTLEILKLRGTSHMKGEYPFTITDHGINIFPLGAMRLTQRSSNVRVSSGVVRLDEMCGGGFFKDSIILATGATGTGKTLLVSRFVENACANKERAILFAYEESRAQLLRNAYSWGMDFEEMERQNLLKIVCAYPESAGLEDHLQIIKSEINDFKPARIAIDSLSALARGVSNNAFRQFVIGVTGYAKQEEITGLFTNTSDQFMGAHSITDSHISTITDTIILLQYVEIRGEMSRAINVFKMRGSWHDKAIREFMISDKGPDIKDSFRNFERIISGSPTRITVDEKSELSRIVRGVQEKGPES
Description: pull-down.

Experiment [2] deals with T2, pS KaiC (KaiC-EA; S431E, T432A) (cyanobacteria, UniProt Q79PF4 1-519, S431E | T432A).
T2 sequence: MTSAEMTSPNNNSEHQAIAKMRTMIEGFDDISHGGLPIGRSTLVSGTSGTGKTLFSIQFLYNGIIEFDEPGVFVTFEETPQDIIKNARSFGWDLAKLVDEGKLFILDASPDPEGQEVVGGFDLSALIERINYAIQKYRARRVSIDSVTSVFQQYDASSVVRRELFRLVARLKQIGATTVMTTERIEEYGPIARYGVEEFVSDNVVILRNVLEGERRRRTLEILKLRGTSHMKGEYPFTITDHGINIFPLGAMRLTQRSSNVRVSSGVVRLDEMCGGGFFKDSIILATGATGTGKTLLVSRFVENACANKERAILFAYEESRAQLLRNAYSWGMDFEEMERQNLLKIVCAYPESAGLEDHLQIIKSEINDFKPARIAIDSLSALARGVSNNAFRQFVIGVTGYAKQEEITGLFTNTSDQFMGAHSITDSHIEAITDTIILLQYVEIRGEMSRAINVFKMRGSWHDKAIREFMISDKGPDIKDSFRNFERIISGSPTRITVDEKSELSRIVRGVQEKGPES
Nature of the experiment: pull-down.

Experiment [3] deals with T1, wild-type KaiC with an N-terminal FLAG …. Description: fluorescence polarisation. A general note: Polarisation of emitted light reports the rotation of a fluorescent probe.
Experiment [4] concerns the target T3, KaiC, wild type (no FLAG epitope) (cyanobacteria, UniProt Q79PF4 1-519).
T3 sequence: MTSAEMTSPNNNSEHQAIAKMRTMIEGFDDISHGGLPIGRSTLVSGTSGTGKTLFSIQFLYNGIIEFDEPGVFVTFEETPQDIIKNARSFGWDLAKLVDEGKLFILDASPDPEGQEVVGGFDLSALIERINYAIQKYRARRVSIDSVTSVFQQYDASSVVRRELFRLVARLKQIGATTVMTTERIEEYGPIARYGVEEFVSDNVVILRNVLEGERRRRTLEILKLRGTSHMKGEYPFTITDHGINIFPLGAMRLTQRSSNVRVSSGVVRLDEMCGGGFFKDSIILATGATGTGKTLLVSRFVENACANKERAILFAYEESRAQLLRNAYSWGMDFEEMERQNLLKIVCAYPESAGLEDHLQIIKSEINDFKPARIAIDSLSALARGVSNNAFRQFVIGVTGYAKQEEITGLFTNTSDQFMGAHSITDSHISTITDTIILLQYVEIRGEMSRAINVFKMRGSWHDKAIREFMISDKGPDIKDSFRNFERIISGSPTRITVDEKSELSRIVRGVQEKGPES
Nature of the experiment: fluorescence polarisation.

B1: biotinylated KaiB (natural protein)
chain: MSPRKTYILKLYVAGNTPNSVRALKTLKNILEVEFQGVYALKVIDVLKNPQLAEEDKILATPTLAKVLPLPVRRIIGDLSDREKVLIGLDLLYGELQDSDDF
modifications: biotin (amine-reactive EZ-Link-Sulfo-NHS-LC-Biotin, 50 x molar excess; sites not determined)
In the case of B1, the binding result in experiment [1] and in experiment [2] was “binds” throughout.

B2: FITC-labeled KaiB K25C (natural protein)
chain: MSPRKTYILKLYVAGNTPNSVRALCTLKNILEVEFQGVYALKVIDVLKNPQLAEEDKILATPTLAKVLPLPVRRIIGDLSDREKVLIGLDLLYGELQDSDDF
modifications: FITC label
With B2, the binding result in experiment [3] and in experiment [4] was “binds” each time.

These data come from article PMC11696221 (Nature Communications, 2025).
